Source: the supplement of paper PMC10266784

B1: library; numbered along this chain (parent)
chain: MAAAAAAAAEQQSSNGPVKKSMREKAVERRSVNKEHNSNFKAGYIPIDEDRLHKTGLRGRKGNLAICVIILLFILAVINLIITLVIWAVIRIGPNGCDSMEFHESGLLRFKQVSDMGVIHPLYKSTVGGRRNENLVITGNNQPIVFQQGTTKLSVENNKTSITSDIGMQFFDPRTQNILFSTDYETHEFHLPSGVKSLNVQKASTERITSNATSDLNIKVDGRAIVRGNEGVFIMGKTIEFHMGGNMELKAENSIILNGSVMVSTTRLPSSSSGDQLGSGDWVRYKLCMCADGTLFKVQVTSQNMGCQISDNPCGNTH

Variants of: B1
Assay: SGCB cell-surface expression functional score (HA stain, bin4 vs bin1, normalised to synonymous) (log10 ratio); higher = more cell-surface SGCB (functional)
How it was run: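 Sorting and sequencing yield the functional score, defined as the log ratio of a variant's highest-bin frequency to its lowest-bin frequency, with the median taken over codons and replicate transductions. The libraries, codon-saturation sets of HA-tagged, YFP-fused human beta-sarcoglycan, went into HEK293 cells stably carrying alpha-, gamma- and delta-sarcoglycan by duplicate lentiviral transduction at MOI <0.1. Cells were stained on ice with Alexa Fluor 647 anti-HA, fixed and split into four 5% intensity bins, and synonymous variants were scaled per section to mean 0, SD 0.5.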

Row | Variant | SGCB cell-surface expression functional score (log10)
1 | D311I | 0.18
2 | D311S | -0.06
3 | D311A | 0.29
4 | D311L | 0.05
5 | D311K | -0.22
6 | D311W | 0.22
7 | D311R | 0.34
8 | D311V | 0.04
9 | D311G | 0.11
10 | D311Q | -0.87
11 | D311H | 0.31
12 | D311M | 0.69
13 | D311P | -0.48
14 | D311F | 0.43
15 | D311N | 0.01
16 | D311Y | -0.64
17 | D311C | 0.1
18 | D311E | -0.14
19 | D311T | -0.93
20 | G315N | 0.02
21 | G315T | 0.15
22 | G315W | 0.43
23 | G315K | -0.14
24 | G315Q | 0.1
25 | G315V | -0.01
26 | G315I | -0.24

Row | Variant | SGCB cell-surface expression functional score (log10)
27 | G315P | -0.04
28 | G315D | -0.41
29 | G315C | -0.05
30 | G315H | 0.04
31 | G315L | -0.02
32 | G315A | -0.11
33 | G315M | 0.54
34 | G315E | 0.04
35 | G315Y | 0.26
36 | G315F | -0.43
37 | G315R | 0.03
38 | G315S | -0.28
39 | G306I | -0.62
40 | G306S | -0.32
41 | G306R | -0.84
42 | G306L | -0.44
43 | G306D | -0.69
44 | G306C | -0.99
45 | G306Y | -1.16
46 | G306P | -1.24
47 | G306N | -0.83
48 | G306K | -0.17
49 | G306W | -1.81
50 | G306V | -0.76
51 | G306H | 0.17
52 | G306Q | -0.33

Row | Variant | SGCB cell-surface expression functional score (log10)
53 | G306T | -0.64
54 | G306M | -1.83
55 | G306F | -0.43
56 | G306A | -0.83
57 | G306E | -0.55
58 | C314N | -0.61
59 | C314L | -0.5
60 | C314T | -0.78
61 | C314G | -0.29
62 | C314I | -0.11
63 | C314Q | 0.15
64 | C314W | 0.19
65 | C314M | -1.88
66 | C314F | -0.43
67 | C314K | 0.06
68 | C314S | -0.27
69 | C314V | 0
70 | C314H | -0.18
71 | C314E | -0.03
72 | C314A | 0.07
73 | C314R | -1.01
74 | C314Y | -0.32
75 | C314P | -0.09
76 | C314D | 0.34
77 | S302V | 0.35
78 | S302H | 0.54

Row | Variant | SGCB cell-surface expression functional score (log10)
79 | S302I | 0.38
80 | S302A | -0.01
81 | S302Y | -0.06
82 | S302L | -0.93
83 | S302T | -1.04
84 | S302R | 0.1
85 | S302D | -1.03
86 | S302K | 0.45
87 | S302F | 0.61
88 | S302W | -0.56
89 | S302E | -0.24
90 | S302M | -1.5
91 | S302G | -0.36
92 | S302P | -0.74
93 | S302Q | -1.84
94 | S302N | -1.18
95 | S302C | -0.53
96 | I309K | -0.24
97 | I309Q | -0.01
98 | I309W | 0.15
99 | I309P | -0.24
100 | I309V | -0.63
101 | I309D | -1.61
102 | I309F | -0.22
103 | I309L | 0.13
104 | I309Y | -0.22

Row | Variant | SGCB cell-surface expression functional score (log10)
105 | I309G | -0.41
106 | I309R | 0
107 | I309C | -1.19
108 | I309A | 0.27
109 | I309H | -0.32
110 | I309S | 0.1
111 | I309N | 0.02
112 | I309M | -0.08
113 | I309T | 0.29
114 | I309E | -0.14
115 | C307P | -0.28
116 | C307G | -0.44
117 | C307H | -0.89
118 | C307F | -0.36
119 | C307Q | 0.09
120 | C307W | -0.24
121 | C307A | -0.28
122 | C307L | -0.21
123 | C307I | -1.65
124 | C307M | -0.59
125 | C307K | 0.23
126 | C307T | -0.77
127 | C307V | -1.17
128 | C307D | 0.04
129 | C307R | -0.37
130 | C307S | -0.41

Row | Variant | SGCB cell-surface expression functional score (log10)
131 | C307E | -0.34
132 | C307N | -0.37
133 | C307Y | 0.26
134 | N316W | -0.12
135 | N316I | -0.06
136 | N316H | 0.47
137 | N316C | 0.11
138 | N316Q | 0.13
139 | N316L | -0.05
140 | N316P | 0.29
141 | N316F | 0.15
142 | N316K | 0.03
143 | N316G | -0.83
144 | N316S | -0.05
145 | N316T | 0.37
146 | N316V | -0.19
147 | N316D | 0.19
148 | N316R | 0.15
149 | N316Y | 0.39
150 | N316A | -0.18
151 | N316M | 0.48
152 | N316E | -0.68
153 | T301Y | 0.14
154 | M305W | -0.29
155 | M305N | -1.05
156 | M305D | -0.25

Row | Variant | SGCB cell-surface expression functional score (log10)
157 | M305R | -0.25
158 | M305K | 0.09
159 | M305I | 0.19
160 | M305Y | -1.05
161 | M305F | -0.74
162 | M305H | -0.9
163 | M305C | -0.18
164 | M305L | -0.06
165 | M305P | -0.21
166 | M305Q | -0.28
167 | M305V | -0.22
168 | M305T | 0.02
169 | M305G | -0.51
170 | M305A | -0.71
171 | M305E | 0.04
172 | M305S | -0.39
173 | N312G | -0.13
174 | N312T | 0.06
175 | N312F | 0.03
176 | N312S | 0.08
177 | N312E | 0.35
178 | N312I | 0.12
179 | N312H | -0.15
180 | N312D | 0.1
181 | N312P | -0.09
182 | N312K | 0.25

Row | Variant | SGCB cell-surface expression functional score (log10)
183 | N312Y | 0.54
184 | N312L | 0.12
185 | N312W | 0.57
186 | N312R | 0.27
187 | N312V | 0.13
188 | N312M | 0.01
189 | N312A | -0.03
190 | N312Q | -0.46
191 | N312C | -0.41
192 | N304E | 0.56
193 | N304Y | -0.11
194 | N304C | -0.06
195 | N304Q | -0.11
196 | N304F | -0.09
197 | N304M | -1.75
198 | N304D | -0.34
199 | N304P | -0.2
200 | N304A | -0.43
201 | N304V | -1.11
202 | N304G | 0.09
203 | N304S | -0.45
204 | N304R | -0.41
205 | N304W | 0.2
206 | N304L | -0.14
207 | N304K | 0.07
208 | N304I | -0.42

Row | Variant | SGCB cell-surface expression functional score (log10)
209 | N304T | -0.51
210 | N304H | 0.26
211 | S310D | -0.01
212 | S310H | -0.5
213 | S310Y | 0.49
214 | S310M | -0.01
215 | S310E | -0.2
216 | S310L | 0.07
217 | S310F | 0.06
218 | S310G | 0.34
219 | S310K | 0.24
220 | S310Q | 0.27
221 | S310W | 0.98
222 | S310V | 0.14
223 | S310T | -0.25
224 | S310N | 0.59
225 | S310A | -0.09
226 | S310R | -0.02
227 | S310C | -0.2
228 | S310P | -0.54
229 | S310I | 0.04
230 | Q308S | -0.37
231 | Q308F | -0.31
232 | Q308R | 0.12
233 | Q308Y | 0.02
234 | Q308I | -0.15

Row | Variant | SGCB cell-surface expression functional score (log10)
235 | Q308L | -0.83
236 | Q308N | -0.38
237 | Q308C | -0.4
238 | Q308T | -0.05
239 | Q308H | -0.29
240 | Q308E | 0.05
241 | Q308V | -0.04
242 | Q308D | 0.17
243 | Q308W | -0.34
244 | Q308P | -1.21
245 | Q308K | -0.5
246 | Q308A | -0.46
247 | Q308G | -0.76
248 | Q308M | 0.09
249 | P313T | 0.06
250 | P313G | -0.17
251 | P313H | -0.07
252 | P313L | -0.14
253 | P313A | 0.41
254 | P313N | 0.01
255 | P313I | -0.92
256 | P313E | 0.11
257 | P313D | -0.42
258 | P313Q | -0.3
259 | P313F | -0.03
260 | P313M | -0.49

Row | Variant | SGCB cell-surface expression functional score (log10)
261 | P313K | -0.22
262 | P313R | -0.02
263 | P313S | -0.17
264 | P313W | -0.38
265 | P313V | 0.23
266 | P313C | 0.15
267 | P313Y | -0.27
268 | T317L | -0.33
269 | T317M | -0.28
270 | T317R | -0.1
271 | T317P | -0.04
272 | T317H | -0.39
273 | T317I | 0.05
274 | T317Q | 0.03
275 | T317Y | 0.51
276 | T317G | 0.44
277 | T317A | -0.21
278 | T317V | -0.26
279 | T317E | -0.34
280 | T317S | 0.15
281 | T317C | 0.17
282 | T317D | -1.71
283 | T317K | 0.5
284 | T317W | 0.32
285 | T317F | 0.01
286 | T317N | 0.08

Row | Variant | SGCB cell-surface expression functional score (log10)
287 | Q303F | 0.11
288 | Q303C | 0.15
289 | Q303M | -0.16
290 | Q303T | -0.46
291 | Q303V | 0.37
292 | Q303K | -0.33
293 | Q303P | 0.04
294 | Q303Y | -0.3
295 | Q303W | -0.98
296 | Q303H | 0.07
297 | Q303I | 0.25
298 | Q303E | 0.08
299 | Q303A | -0.65
300 | Q303D | 0.36
301 | Q303N | -0.9
302 | Q303L | -0.16
303 | Q303G | 0.2
304 | Q303S | -0.43
305 | Q303R | -0.45
